Assay results reported in the nanobody polyreactivity screen of Harvey et al. (2022).

Assay: yeast display, Sf9 membrane polyspecificity reagent, FACS + sequencing; frameworks hold sequencing errors
How it was run: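 Synthetic nanobody libraries on Saccharomyces cerevisiae BJ5465 were galactose-induced for 36–48 hours, stained 1 hour at 4 °C with 10% biotinylated, detergent-solubilized Sf9 membrane reagent and enriched on streptavidin microbeads. FACS then separated cells into low and high (top ~1%) gates by anti-HA (expression) and streptavidin (reagent binding) fluorescence. Genes were colony-PCR amplified, MiSeq 2 × 250 sequenced and CDR-length filtered. A clone's polyreactivity label is that of its gate of origin.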

Sequence	polyreactivity (PSR sort gate)
QVQLVESGGGLVQAGGSLRLSCAASGSIFTPNAMGWYRQAPGKERELVAAISSSSDRTYYADSVKGRFTISRDNAKNTVYLQMNSLKPEETAVYYCAAYAQKRYYWGQGTQVTVSS	high polyreactivity
QVQLVESGGGLVQAGGSLRLSCAASGSIFTPYAMGWYRQAPGKERELVAAISRSGGSTFYADSVKGRFTISRDNAKNSFYLQMNSLKPEDTAVYYFAVVASRSHTETPEYDYWGQGTQVTVSS	low polyreactivity
QVQLVESGGGLVQAGGSLRLSCAASGSIFTPYAMGWYRQAPGKERELVAAITYSGGSTYYADSVKGRFTISRDNAKNTVYLQMNSLKPEDTAVYYCAAYFNIYGLEYDYWGQGTQVTVSS	high polyreactivity
QVQLVESGGGLVQAGGSLRLSCAASGSIFTPYAMGWYRQAPGKERELVADIDASGGGTYADSVKGRFTISRDNAKNTVYLQMNSLKPEDTAVYYCNTDPYSSAWYNYDYWGQGTQVTVSS	low polyreactivity
QVQLVESGGGLVQAGGSLRLSCAASGSIFTPYVKGWYRQAPGKERELVAAISKRGTRTYYSDSVKGRFTISRDNAKNTVYLQMNSLKPEDTAVYYCNAAVDYGSEHDYWGQGTQVTVSS	high polyreactivity
QVQLVESGGGLVQAGGSLRLSCAASGSIFTRNAMGWYRQAPGKERELVADISRRGVSTYYADSVKGRFTISRDNAKNTVYLQMNSLKPEDTAVYYCNKLSSYVVARRTTEYDYWGQGTQVTVSS	high polyreactivity
QVQLVESGGGLVQAGGSLRLSCAASGSIFTRNAMGWYRQAPGKERELVATIRKNGASTTYADSVKGRFTISRDNAKNTVYLQMNSLKPEDTAVSYCARDHHTKYNYWGQGTQVTVSS	low polyreactivity
QVQLVESGGGLVQAGGSLRLSCAASGSIFTRNTMGWYRQAPGKERELVAAINRSGGRTYYADSVKGRFTISRDNAKNSVYLTMNSLKPEDTAVYYCAAYTQGSRYDYWGQGTQVTVSS	high polyreactivity
QVQLVESGGGLVQAGGSLRLSCAASGSIFTRYAMAGYRQAPGKERELVAAISWIGTRTYYADSVKGRFTISRDNAKNTVYLPMNSLKPEETAVYYCNAVSKVERYSYPHGRPFEYWGQGTQVTVSS	high polyreactivity
QVQLVESGGGLVQAGGSLRLSCAASGSIFTRYAMGWYRQAPGKEREFVAAISRRGGRTYYADSVKGRFTISRDNAKNTVYLQMNSLKPEDTAVYYCAASEPPGYYIALFDYWGQGTQVTVSS	high polyreactivity
QVQLVESGGGLVQAGGSLRLSCAASGSIFTRYTMGWYSQAPGKERELVAVISDSSGRTYYADSVKGRFTISRDNAKNTVYLQMNSLKPEDTAVYYCAAEYSDIYEYWGQGTQVTVSS	low polyreactivity
QVQLVESGGGLVQAGGSLRLSCAASGSIFTRYVMGWYRQAPGKERELVAAISGRGSSTYYADSVKGRFTISRDNAKNTVYLQMNSLKPEDTAVYYCAADRVRRPSPGGMDYWGQGTQVTVSS	high polyreactivity
QVQLVESGGGLVQAGGSLRLSCAASGSIFTSNAMGWYRQAPGKERELVAAISRRGSNTFYADSVKGRFTISRDNAKNTVYLQMNSLKPEDTAVYYCNTLVNAISYEYYYWGQGTQVNVSS	high polyreactivity
QVQLVESGGGLVQAGGSLRLSCAASGSIFTSNAMGWYRQAPGKERELVAAISYISGGTYYADSVKGRFTISRDNAKNTVYLQMNSLKPEDTAVYYCAAEQKWGSGQYDQGSYWYYYWGQGTQVTVSS	low polyreactivity
QVQLVESGGGLVQAGGSLRLSCAASGSIFTSNAMGWYRQAPGKERELVAAITSSSSTNYADSVKGRFTISRDNAKNTVYLQMNSLKPEDTAVYYCAKQGNNIPWYRPYGDYYYWGQGTLVTVSS	low polyreactivity
QVQLVESGGGLVQAGGSLRLSCAASGSIFTSNDMGWYRQAPGKERELVAAITNSGGSTYYADSVKGRFTISGDNAKNTVYLQMNSLKPEDTEVYYCAAEISILPFVTPDTIYGYWGQGTQVTVSS	low polyreactivity
QVQLVESGGGLVQAGGSLRLSCAASGSIFTSYAMGWYIPAPGKERELVASISGSGGSTYYADSVKGRFTISRDYSMNTVYLQMNRLKPEVTEVYVCANRCYNGWLRRYYYWGQGTNVTVSS	high polyreactivity
QVQLVESGGGLVQAGGSLRLSCAASGSIFTSYAMGWYRQAPGKERELVAAISRRGSRTYYADSVKGRFTISRDNANNTVYLQMNSLKPEETAVYDCAAKSGGQPGDSWGQGTQVTVSS	high polyreactivity
QVQLVESGGGLVQAGGSLRLSCAASGSIFTSYAMGWYRQAPGKERELVAAITSTGGSTYYADSVKGRFTISRDPAKNTVYLLMNSLKPEDTAVYYCNADGGTPYDYWGQGTQVTVSS	low polyreactivity
QVQLVESGGGLVQAGGSLRLSCAASGSIFTSYTMGWYSQAPGKERELVAAIDSGGDSTYYADSVKGRFTISRDNAKNTVYLQMNSLKPEDTAVYYCAAEPQYWWQDYRYNYWGQGTQVTVSS	high polyreactivity
QVQLVESGGGLVQAGGSLRLSCAASGSIFTTNAMGWYRQAPEKERELVATITWSDGSTYYADSVKGRFTISRDNAKNTVYLQMNSLKPEDTAVYYCATPYKRYFYKGGDYWGQGTQVSVSS	low polyreactivity
QVQLVESGGGLVQAGGSLRLSCAASGSIFTTYTMASYRQAPGKERELVAAISSSGVRTYYADSVKGRFTISRDNAKNTVYLQMNSLKPEDTAVYYCAARVGKYAEHRYNYWGQGTQVTVSS	high polyreactivity

Sequence	polyreactivity (PSR sort gate)
QVQLVESGGGLVQAGGSLRLSCAASGSIFTTYTMGWYRQAPGKERELVAAITTSSGSTYYADSVKGRFTISRDNAKNTVYLQMNSLKPEDTAVYSCNATYSAAVDYWGQGTQVTVSS	low polyreactivity
QVQLVESGGGLVQAGGSLRLSCAASGSIFTVNAMGWYRQAPGKERELVARISWSGGSTYYADSVKGRFTISRDNAKNTVYLQMNSLKPEDTAVYYCAKGFYEGVPSYGYDYWGQGTQVTVSS	low polyreactivity
QVQLVESGGGLVQAGGSLRLSCAASGSIFTVYVIGGYRQAPGKEREFVAAITYSGGRTDYADSVKGRFTISRDNAKNTVYLQMNSLKPEDTAVYYCAKVRDVLWRFNYWGQGTQVTVSS	high polyreactivity
QVQLVESGGGLVQAGGSLRLSCAASGSIFTWYAMGWYRLAPGIDRELVAAITRGGSTYADSVTGRFTISRDNAKNTVYLQMNSLKPEDTAVYYCNAVYGVYDFNYWGQGTQVTVSS	low polyreactivity
QVQLVESGGGLVQAGGSLRLSCAASGSIFTWYAMGWYRQAPGKERELVAAITRGGSTYADSVKGRFTISRDNAKNTVYLQMNSLKPEDSAVYYCNAVYGVYDFTYWGPGTQVTVSS	low polyreactivity
QVQLVESGGGLVQAGGSLRLSCAASGSIFTWYAMGWYRQAPGKETELVARINVSAGITYYADSVKGRFTISRDNAKNTVYLQMNSLKPEDTAVYYCAAEDFTRQFEYWGQGTQVTVSS	low polyreactivity
QVQLVESGGGLVQAGGSLRLSCAASGSIFTYNAMGWYRKAPGKERELVAVISWSGGSTYYADSVKGRFTISRDNAKNTVYLQMNSLKPEDTAVYYCNSDYYRPYGNKYGYWGQGTQVTVSS	high polyreactivity
QVQLVESGGGLVQAGGSLRLSCAASGSIFTYNAMGWYRQAPGKERELVASISSGGITNYADSVKGRFTISRDNAKNTVYLQMNSLKPEDTAVYYCATEYLYVDFFIRYDYWGQGTQVTVSS	low polyreactivity
QVQLVESGGGLVQAGGSLRLSCAASGSIFTYNTMGWYRPAPGKERELVAAISSGGRTYYADSVKGRFTISRDNAKNTVYLQMTSLKPEDTAVYYCAARYYFWGQGTQVTVSS	high polyreactivity
QVQLVESGGGLVQAGGSLRLSCAASGSIFTYYAIGWYRQAPWKERELVAAISWSDGNTYYADSVKGRFTISRDNAKNTVYLQMNSLKPEDSAVYYCAAEYYVSRYWYPYDFYIMNYWGQGTQVTVSS	high polyreactivity
QVQLVESGGGLVQAGGSLRLSCAASGSIFTYYAMGWYRQAPGKEREFVAAISRRGGSTYYADSVKGRFTISRDNAKNTVYLQMNSLKPEDTAVYYCAATYPYRGFYGIRSQFDYWGQGTQVTVSS	high polyreactivity
QVQLVESGGGLVQAGGSLRLSCAASGSIFTYYAMGWYRQAPGKERELVAAISLDGGSTYYADSVKGRFTISRDNAKNTVYLQMNSLKPEDTAVYYCAAYPTYPDEYWGQGTQVTVSS	low polyreactivity
QVQLVESGGGLVQAGGSLRLSCAASGSIFTYYAMGWYRQAPGKERELVAAITRRGGSTYYADSVKGRFTISRDNAKNTVYLQMNSLKPEDTAVYYCNAFTYWASYWDYDYWGQGTQVTVSS	low polyreactivity
QVQLVESGGGLVQAGGSLRLSCAASGSIFTYYAMGWYRQAPGKERELVAGISGGGRTNYADSVKGRFTISRDNAKNTVYLQMNSLKPEDTAVFYCAADWSFSTIRYWRFDSDYWGQGTQVTVSS	high polyreactivity
QVQLVESGGGLVQAGGSLRLSCAASGSIFTYYAMGWYRQAPGKERELVASINWSGGRTYYADSVKGRFTISRDNAKNTVYLQMNSLKPEDTAVYYCNARSAYGTGNQRGRRYYWGQGTQVTVSS	high polyreactivity
QVQLVESGGGLVQAGGSLRLSCAASGSIFTYYTMGWYRPAPGKERELVAAISNRGGSTYYADSVKGRFTISRDNSKITVYLQMNSLKPEDTAVYYCNKDVGVAVEMAYWGQGTQVTVSS	high polyreactivity
QVQLVESGGGLVQAGGSLRLSCAASGSIFTYYTMGWYRQAPGKERELVAAITVSGGRTFYADSVKGRFTISRDNAKNTVYLQMNSLKPEDTAVYYCAVKQVTLSPQYDYWGQGTQVTVSS	low polyreactivity
QVQLVESGGGLVQAGGSLRLSCAASGSIFVANPMGWYRQATGKERELVAVISSGGGSTSYADSVKGRFTISRDNAKNSVYLQMNSLKPEDTAVYYCNRRRYDAGSTMGYWGQGTQVTVSS	low polyreactivity
QVQLVESGGGLVQAGGSLRLSCAASGSIFVAYTMGWYRQAPGKERELVAAISRGGSTNYADSVKGRFTISRDNAKNTVDLQMNSLKPEDTAVYYCAAKVWDGQLLYYWGQGTQVTVSS	low polyreactivity
QVQLVESGGGLVQAGGSLRLSCAASGSIFVDNAMGWYRQAPGIERELVAVITLRSGSTNYADSVKGRFTISRDNAKNTVYLQMNSLKPEDTAVYYCAADDTYHDYQRDTDDDYWGQGTQVTVSS	low polyreactivity
QVQLVESGGGLVQAGGSLRLSCAASGSIFVDNAMGWYRQAPGKDRELVAVISWIGSSTYYADSVKGRFTISRDNAKNTDYFQMNSLKPEDTAVYYCAAAPSRTLLRQSKYYYWGQGTQVTVSS	low polyreactivity
